Data from patent publication US20250277013A1 (published 2025).

T1: Neuroligin-4, X-linked (NLGN4X) peptide on HLA-A*02:01 (human)
T1 peptide: NLDTLMTYV

T2: Protein Tyrosine Phosphatase Receptor Type Z1 (PTPRZ1) peptide on HLA-A*02:01 (human)
T2 peptide: MIWEHNVEV


Assays:
[1] = target: T1, Neuroligin-4, X-linked (NLGN4X) peptide …; assay: multimer staining
[2] = target: T2, Protein Tyrosine Phosphatase Receptor …; assay: multimer staining

| binding result [1] | binding result [2] | Binder |
| --- | --- | --- |
| recognises |  | NLGN4X(131-139)-specific TCR (TCR, V domains shown) Valpha: RKEVEQDPGPFNVPEGATVAFNCTYSNSASQSFFWYRQDCRKEPKLLMSVYSSGNEDGRFTAQLNRASQYISLLIRDSKLSDSATYLCVVTDSGNTGKLIFGQGTTLQVKP Vbeta: GAVVSQHPSWVICKSGTSVKIECRSLDFQATTMFWYRQFPKQSLMLMATSNEGSKATYEQGVEKDKFLINHASLTLSTLTVTSAHPEDSSFYICSARVDYNEQFFGPGTRLTVL |
|  | recognises | PTPRZ1(1814-1822)-specific TCR (TCR, V domains shown) Valpha: AQSVTQLDSQVPVFEEAPVELRCNYSSSVSVYLFWYVQYPNQGLQLLLKYLSGSTLVKGINGFEAEFNKSQTSFHLRKPSVHISDTAEYFCAVSDRGAGNMLTFGGGTRLMVKP Vbeta: GAGVSQSPSNKVTEKGKDVELRCDPISGHTALYWYRQSLGQGLEFLIYFQGNSAPDKSGLPSDRFSAERTGGSVSTLTIQRTQQEDSAVYLCASSLGLAGGLAGELFFGEGSRLTVL |
